In patent publication US7811569 one finds SGI % (specific growth inhibitory index, ADCI with monocytes, 3 µg/ml), SGI % (specific growth inhibitory index, ADCI with monocytes, 15 µg/ml) and IFAT in ADCI (endpoint titre of indirect immunofluorescence) data, which are given here for one molecule.

Experiment [1] addresses native MSP-3 antigen of Plasmodium falciparum clone 3D7 schizonts and merozoites (Plasmodium falciparum). The experiment can be described thus: cell-based or functional assay.
The target is the same in experiment [2]. The experiment can be described thus: indirect immunofluorescence on 3D7 mature schizont infected RBCs; antibody at 15 µg/ml in ADCI.
For experiment [3] the target is unchanged. The experiment can be described thus: indirect immunofluorescence on 3D7 mature schizont infected RBCs; antibody at 3 µg/ml in ADCI.

B1: RAM1 IgG3 (antibody, V domains shown)
VH: QVQLVQSGGGVVQPGRSLRLSCAASGFTFSSYAMHWVRQAPGKGLEWVAVISYDGSNKYYADSVKGRFTISRDNSKNTLYLQMSSLRAEDTAVYYCVKGASSWSTGTLVTVSS
VL: DIVMMQSPATLSASVGDRVTITCRASQSISSWLAWYQQKPGKAPNLLIYKASSLESGVPSRFSGSGSGTEFTLTISSLQPDDFATYYCQQYKSFPYTFGQGTRLEIKR
As to B1, the SGI % (specific growth inhibitory index, ADCI with monocytes, 3 µg/ml) in experiment [1] stood at 23%. Moreover, in experiment [1], the SGI % (specific growth inhibitory index, ADCI with monocytes, 15 µg/ml) was 49%. Further, the IFAT in ADCI (endpoint titre of indirect immunofluorescence) in experiment [2] worked out at 50 titre; in experiment [3], 10 titre.
